Starred links: 1 amine or outer side, 2 acyl side, 3 side chain; linkers in the order of their positions; H or OH if unused. Suc = O=C(CCC(=O)[*:2])[*:1]; Dox = doxorubicin

The values below come from patent US20070275903A1 (Bristol-Myers Squibb, published 2007).

One series relates to T1, Suc-Leu-Ala-Gly-Dox.
T1 sequence: LAG

The subject of the next series is T2, Suc-Leu-Ala-Leu-Dox.
T2 sequence: LAL

In another series the test system is T3, Suc-βAla-Leu-Ala-Leu-Dox.
T3 sequence: ALAL

The next series has as its system T4, Suc-Phe-Gly-Phe-Dnr.
T4 sequence: FGF

A further series relates to T5, Suc-Leu-Thr-Leu-Dnr.
T5 sequence: LTL

Another series relates to T6, Suc-Leu-Tyr-Leu-Dnr.
T6 sequence: LYL

The test system of a further series is T7, Suc-Leu-Tyr-Leu-Dox.
T7 sequence: LYL

Another series deals with T8, Suc-Tyr-Ala-Ile-Dnr.
T8 sequence: YAI

A further series has as its system T9, Pyg-Leu-Ala-Leu-Dnr.
T9 sequence: LAL

The next series concerns T10, Suc-Phe-Gly-Leu-Dnr.
T10 sequence: FGL

In the next series the test system is T11, Suc-Met-Gly-Ile-Dnr.
T11 sequence: MGI

For a further series, the system named is T12, Suc-Phe-Gly-Ile-Dnr.
T12 sequence: FGI

In the next series the test system is T13, Suc-Met-Ala-Leu-Dnr.
T13 sequence: MAL

The next series relates to T14, Suc-Met-Ala-Leu-Dox.
T14 sequence: MAL

For another series, the system named is T15, Suc-Met-Gly-Leu-Dnr.
T15 sequence: MGL

A further series deals with T16, Suc-Nle-Gly-Phe-Dnr.
T16 sequence: XGF

The next series deals with T17, Suc-Met-Gly-Phe-Dnr.
T17 sequence: MGF

The next series relates to T18, Suc-Nle-Ala-Leu-Dnr.
T18 sequence: XAL

The next series concerns T19, Suc-Leu-Ala-Leu-Dnr.
T19 sequence: LAL

The subject of another series is T20, Suc-Tyr-Ala-Leu-Dnr.
T20 sequence: YAL

For series [1], the target named is CD10 expressed on Ramos and Namalwa B-cell lines (UniProt P08473 2-750, limits assumed). Briefly: cell-based or functional assay.
Chain of CD10 expressed on Ramos and Namalwa B-cell lines (P08473 2-750 limits assumed): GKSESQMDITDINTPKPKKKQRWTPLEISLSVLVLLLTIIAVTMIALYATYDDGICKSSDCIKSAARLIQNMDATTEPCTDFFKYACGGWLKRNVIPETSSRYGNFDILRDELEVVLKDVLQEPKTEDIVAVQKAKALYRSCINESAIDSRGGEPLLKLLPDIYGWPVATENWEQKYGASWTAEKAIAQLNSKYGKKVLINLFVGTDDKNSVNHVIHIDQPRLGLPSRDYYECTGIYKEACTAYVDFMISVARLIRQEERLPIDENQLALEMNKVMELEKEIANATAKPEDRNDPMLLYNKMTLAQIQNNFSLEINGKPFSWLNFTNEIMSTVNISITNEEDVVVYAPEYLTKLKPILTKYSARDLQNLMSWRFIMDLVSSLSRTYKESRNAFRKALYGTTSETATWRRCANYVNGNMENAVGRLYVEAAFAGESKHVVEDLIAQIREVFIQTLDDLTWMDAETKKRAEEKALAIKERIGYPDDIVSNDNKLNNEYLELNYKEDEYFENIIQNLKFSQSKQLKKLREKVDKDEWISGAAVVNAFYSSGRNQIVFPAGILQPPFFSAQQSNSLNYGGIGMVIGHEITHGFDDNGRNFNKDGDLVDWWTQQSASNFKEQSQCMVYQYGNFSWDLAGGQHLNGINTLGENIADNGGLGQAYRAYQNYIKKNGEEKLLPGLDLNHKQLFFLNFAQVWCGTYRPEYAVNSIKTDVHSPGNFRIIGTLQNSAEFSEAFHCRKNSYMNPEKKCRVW

Take “purified Porcine Kidney CD10 (Elastin Products Company)”: the % hydrolysis/10 hr with Suc-Leu-Ala-Gly-Dox came to 0%; in the series on Suc-Leu-Ala-Leu-Dox, 8.3%; in the series on Suc-βAla-Leu-Ala-Leu-Dox it was 10.9%. Besides, the Fraction hydrolyzed relative to standard with Suc-Leu-Ala-Gly-Dox came out at 0; with Suc-Leu-Ala-Leu-Dox, 0.75; in the series with Suc-βAla-Leu-Ala-Leu-Dox, 1.

Turning to “trouase (carcinoma cell enzyme preparations; HeLa cell anion exchange fraction pool)”, the Relative Cleavage % in the series with Suc-Phe-Gly-Phe-Dnr was found to be 12%; in the series with Suc-Leu-Ala-Gly-Dox it was 40%; with Suc-Tyr-Ala-Ile-Dnr it was 25%; in the series on Suc-Leu-Ala-Leu-Dox, 62%; in the series with Pyg-Leu-Ala-Leu-Dnr, 76%; in the series on Suc-Phe-Gly-Leu-Dnr, 24%. Further, the Relative Cleavage % is 46% with Suc-Met-Gly-Ile-Dnr; 54% in the series on Suc-Phe-Gly-Ile-Dnr; 69% in the series on Suc-Met-Ala-Leu-Dnr; 49% in the series on Suc-Met-Ala-Leu-Dox; 55% in the series on Suc-Met-Gly-Leu-Dnr; 17% in the series on Suc-Nle-Gly-Phe-Dnr. In addition, the Relative Cleavage % with Suc-Met-Gly-Phe-Dnr was 29%; in the series on Suc-Leu-Ala-Leu-Dnr it was 76%; in the series on Suc-Tyr-Ala-Leu-Dnr, 77%. In addition, the “cleavage by carcinoma enzyme preparations (HPLC, 2 hr at 37 C)” value (from here on “cleavage … (HPLC, 2 hr at 37 C)”) in the series with Suc-Phe-Gly-Phe-Dnr, in the series with Suc-Leu-Ala-Gly-Dox, in the series with Suc-Leu-Thr-Leu-Dnr, with Suc-Leu-Tyr-Leu-Dnr, in the series on Suc-Leu-Tyr-Leu-Dox and with Suc-Tyr-Ala-Ile-Dnr was “cleaved by the trouase under the given conditions” in each case. Also, the “cleavage … (HPLC, 2 hr at 37 C)” value in the series on Suc-Leu-Ala-Leu-Dox, in the series with Pyg-Leu-Ala-Leu-Dnr, in the series on Suc-Phe-Gly-Leu-Dnr, in the series on Suc-Met-Gly-Ile-Dnr, with Suc-Phe-Gly-Ile-Dnr and with Suc-Met-Ala-Leu-Dnr was “cleaved by the trouase under the given conditions” throughout. The “cleavage … (HPLC, 2 hr at 37 C)” value in the series with Suc-Met-Ala-Leu-Dox, with Suc-Met-Gly-Leu-Dnr, in the series with Suc-Met-Gly-Phe-Dnr, with Suc-Nle-Ala-Leu-Dnr and with Suc-Leu-Ala-Leu-Dnr was “cleaved by the trouase under the given conditions” in each case.

As for Suc-Leu-Ala-Gly-Dox [Suc-Leu-Ala-Gly-Dox], in series [1], the “IC50 (µM), 3H-thymidine incorporation, Namalwa (CD10pos) cells” value amounted to 17.3 µM; the “IC50 (µM), 3H-thymidine incorporation, Ramos (CD10pos) cells” value amounted to 22.7 µM; the “Ratio of IC50 Ball-1 (CD10neg):Namalwa (CD10pos)” value amounted to 1; the “Ratio of IC50 Ball-1 (CD10neg):Ramos (CD10pos)” value is 1.

Turning to Suc-Leu-Ala-Leu-Dox [Suc-Leu-Ala-Leu-Dox], in series [1], the “IC50 (µM), 3H-thymidine incorporation, Namalwa (CD10pos) cells” value is 2.27 µM; the “IC50 (µM), 3H-thymidine incorporation, Ramos (CD10pos) cells” value is 2.63 µM; the “Ratio of IC50 Ball-1 (CD10neg):Namalwa (CD10pos)” value amounted to 35; the “Ratio of IC50 Ball-1 (CD10neg):Ramos (CD10pos)” value turned out to be 30.
